Here are results for three substances from patent publication US20230047413A1.

The target in assay [1] is PHF-tau (paired helical filament tau isolated from Alzheimer's disease brain) (human) (UniProt P10636). Put plainly: SPR ProteOn, PHF-tau.
Assay [2] concerns the target tau seeds from GFP-tauP301L-overexpressing HEK cells (UniProt P10636). Description: cell-based or functional assay.
The target in assay [3] is tau seeds from cryopreserved human AD brain tissue (human) (UniProt P10636). Put plainly: cell-based or functional assay.
The target of assay [4] is tau seeds from spinal cords of P301S transgenic animals (human) (UniProt P10636). Put plainly: cell-based or functional assay.
The target in assay [5] is recombinant human wild-type tau (Example 1) (human) (UniProt P10636). Put plainly: SPR Biacore, recombinant tau.
Assay [6] concerns the target PHF-tau (paired helical filament tau isolated from Alzheimer's disease brain) (human) (UniProt P10636). Description: SPR ProteOn, PHF-tau capture-coupled via HT7, bivalent model.

PHF-tau (paired helical filament tau isolated from Alzheimer's disease brain) (human), sequence (P10636 other isoform, or with tags, fused parts or gaps limits assumed): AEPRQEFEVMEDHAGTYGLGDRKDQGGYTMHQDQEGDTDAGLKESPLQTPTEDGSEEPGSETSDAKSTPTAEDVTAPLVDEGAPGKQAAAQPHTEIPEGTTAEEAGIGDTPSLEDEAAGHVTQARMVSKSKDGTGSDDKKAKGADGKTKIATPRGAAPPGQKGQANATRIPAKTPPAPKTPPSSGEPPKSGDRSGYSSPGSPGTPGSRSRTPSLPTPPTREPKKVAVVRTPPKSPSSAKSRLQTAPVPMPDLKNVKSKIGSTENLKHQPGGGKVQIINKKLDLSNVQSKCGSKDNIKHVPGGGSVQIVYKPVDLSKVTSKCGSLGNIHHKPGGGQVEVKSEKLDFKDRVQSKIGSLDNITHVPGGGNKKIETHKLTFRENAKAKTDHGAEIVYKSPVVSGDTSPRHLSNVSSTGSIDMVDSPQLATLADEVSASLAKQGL
recombinant human wild-type tau (Example 1) (human), sequence (P10636 other isoform, or with tags, fused parts or gaps limits assumed): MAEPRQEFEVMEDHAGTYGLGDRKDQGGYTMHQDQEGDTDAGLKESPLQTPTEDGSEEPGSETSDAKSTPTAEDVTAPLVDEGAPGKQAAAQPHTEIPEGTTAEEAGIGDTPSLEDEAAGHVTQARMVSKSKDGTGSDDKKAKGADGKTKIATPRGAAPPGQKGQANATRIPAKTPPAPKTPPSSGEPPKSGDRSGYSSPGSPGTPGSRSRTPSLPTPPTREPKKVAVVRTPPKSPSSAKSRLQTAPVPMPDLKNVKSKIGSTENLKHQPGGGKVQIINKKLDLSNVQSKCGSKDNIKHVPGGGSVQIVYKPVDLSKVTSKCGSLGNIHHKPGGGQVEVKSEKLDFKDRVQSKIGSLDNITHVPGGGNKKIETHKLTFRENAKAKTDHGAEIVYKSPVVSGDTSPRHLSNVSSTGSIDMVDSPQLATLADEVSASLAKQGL
tau seeds from spinal cords of P301S transgenic animals (human), sequence (P10636 other isoform, or with tags, fused parts or gaps P301S P301S): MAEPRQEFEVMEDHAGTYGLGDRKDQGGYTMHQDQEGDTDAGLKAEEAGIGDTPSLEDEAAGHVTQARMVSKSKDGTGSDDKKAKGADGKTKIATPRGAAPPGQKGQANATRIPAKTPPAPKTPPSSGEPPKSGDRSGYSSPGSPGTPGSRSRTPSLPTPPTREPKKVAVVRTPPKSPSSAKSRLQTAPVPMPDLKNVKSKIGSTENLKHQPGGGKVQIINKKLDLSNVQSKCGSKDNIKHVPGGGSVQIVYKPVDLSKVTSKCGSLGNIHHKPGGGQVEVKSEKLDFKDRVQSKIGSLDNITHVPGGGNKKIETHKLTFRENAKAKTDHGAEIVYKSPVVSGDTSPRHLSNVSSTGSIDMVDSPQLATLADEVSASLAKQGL

In assay [1], AT8 Fab showed a Kd of 25.8 nM, a koff of 0.023 s⁻¹ and a kon of 889000 M⁻¹ s⁻¹.
As to AT8 mAb (hyb) (antibody), the inhibition of K18 aggregate induction, BRET/GFP-tauP301L co-incubation assay, 300 nM antibody (% of negative control) in assay [2] stood at 10.5. The same substance returned an FRET/human AD brain homogenate immunodepletion assay, 300 nM antibody (% of negative control) in assay [3] of 80.7. Also, in assay [4], the FRET/P301S spinal cord immunodepletion assay, 300 nM antibody (% of negative control) is 96.7 and the inhibition of K18 aggregate induction, FRET/P301S spinal cord co-incubation assay, 300 nM antibody (% of negative control) was found to be 26.4. Moreover, in assay [1], the Kd came to 0.092 nM, the off-rate (koff) stood at 0.000211 s⁻¹ and the kon came to 2.3e+06 M⁻¹ s⁻¹.
In the case of HT7 (antibody), in assay [5], the Kd came out at 3.05 nM, the off-rate constant (koff) is 0.0118 s⁻¹ and the association rate constant (kon) is 3.86e+06 M⁻¹ s⁻¹. For the same substance, the inhibition of K18 aggregate induction, BRET/GFP-tauP301L co-incubation assay, 166.67 nM antibody (% of negative control) in assay [2] was 65.4. In addition, in assay [3], the FRET/human AD brain homogenate immunodepletion assay, 300 nM antibody (% of negative control) is 83. In assay [4], the FRET/P301S spinal cord immunodepletion assay, 300 nM antibody (% of negative control) came out at 99.2 and the inhibition of K18 aggregate induction, FRET/P301S spinal cord co-incubation assay, 89.99 nM antibody (% of negative control) worked out at 73.5. In assay [6], this substance returned a Kd of 0.193 nM, a koff of 0.00011 s⁻¹ and a kon of 569000 M⁻¹ s⁻¹. For the same substance, in assay [1], the Kd turned out to be 0.131 nM, the koff was 9.26e-05 s⁻¹ and the on-rate constant (kon) was determined as 706000 M⁻¹ s⁻¹.
